Reference: US20090317326A1 (published 2009)

Target: T1, human GRP receptor (human, UniProt P30550 1-384)
T1 construct: also called Gastrin-releasing peptide (GRP) receptor; GRP receptors
Test: binding affinity (IC50); assay format, labelled ligand and receptor source not described

T1 sequence (P30550 whole entry): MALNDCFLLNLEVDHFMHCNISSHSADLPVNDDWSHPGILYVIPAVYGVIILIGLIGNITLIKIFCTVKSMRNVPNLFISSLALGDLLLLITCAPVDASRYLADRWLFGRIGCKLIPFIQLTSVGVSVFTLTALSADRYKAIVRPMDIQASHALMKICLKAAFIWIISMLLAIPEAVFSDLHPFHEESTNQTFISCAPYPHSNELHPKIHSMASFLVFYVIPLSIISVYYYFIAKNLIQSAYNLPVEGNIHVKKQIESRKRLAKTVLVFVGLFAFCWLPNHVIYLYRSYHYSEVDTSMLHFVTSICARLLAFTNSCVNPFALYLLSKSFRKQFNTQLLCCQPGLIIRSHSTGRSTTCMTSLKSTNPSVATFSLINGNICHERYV

IC50 [nM]	Binder
2.3	RXQWAVGHXL (not fully specified; N-terminal 3-cyano-4-fluoro-benzoyl group (F is 18F or 19F); Ava (5-aminovaleric acid) spacer; NMeGly (N-methylglycine); His(3Me) (3-methylhistidine); Sta (statine); C-terminal amide, Synthetic bombesin analog) [4F,3CN-Bnz-Arg-Ava-Gln-Trp-Ala-Val-NMeGly-His(3Me)-Sta-Leu-NH2]
1.9 to 2.7	RXQWAVGHXL (not fully specified; N-terminal 3-cyano-4-fluoro-benzoyl group (F is 18F or 19F); Ava (5-aminovaleric acid) spacer; NMeGly (N-methylglycine); Sta (statine); C-terminal amide, Synthetic bombesin analog) [3-CN,4-F-Benzoyl-Arg-Ava-Gln-Trp-Ala-Val-NMeGly-His-Sta-Leu-NH2]
0.3 to 1.8	RXQWAVGHXL (not fully specified; N-terminal 3-trifluoromethyl-4-fluoro-benzoyl group (F is 18F or 19F); Ava (5-aminovaleric acid) spacer; NMeGly (N-methylglycine); Sta (statine); C-terminal amide, Synthetic bombesin analog) [3-CF3,4-F-Benzoyl-Arg-Ava-Gln-Trp-Ala-Val-NMeGly-His-Sta-Leu-NH2]
1	RXQWAVGHXL (not fully specified; N-terminal 3-cyano-4-fluoro-benzoyl group (F is 18F or 19F); Ava (5-aminovaleric acid) spacer; His(3Me) (3-methylhistidine); Sta (statine); C-terminal amide, Synthetic bombesin analog) [3-CN,4-F-Benzoyl-Arg-Ava-Gln-Trp-Ala-Val-Gly-His(3Me)-Sta-Leu-NH2]
